Measured values published in patent US20210388081A1 (Memorial Sloan Kettering, published 2021).
Changes are numbered by the printed parent chain.

Experiments:
[1] = target: T1, FcRL1, overexpressed on 3T3 cells (UniProt Q96LA6 17-429, limits assumed); experiment: phage clone on 3T3-FcRL1 cells
T1 construct: whole, on cells
T1 sequence (looked up): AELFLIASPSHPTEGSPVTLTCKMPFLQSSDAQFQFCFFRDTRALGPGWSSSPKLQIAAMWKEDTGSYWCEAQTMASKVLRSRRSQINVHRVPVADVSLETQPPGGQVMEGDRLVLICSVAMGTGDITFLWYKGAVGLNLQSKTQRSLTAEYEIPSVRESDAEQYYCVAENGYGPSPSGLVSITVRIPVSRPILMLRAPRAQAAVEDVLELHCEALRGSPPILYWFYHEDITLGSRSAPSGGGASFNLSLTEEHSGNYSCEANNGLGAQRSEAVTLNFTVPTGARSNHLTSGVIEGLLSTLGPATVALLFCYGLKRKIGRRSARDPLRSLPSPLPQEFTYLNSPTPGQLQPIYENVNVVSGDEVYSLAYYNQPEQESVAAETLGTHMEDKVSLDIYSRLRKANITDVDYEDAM

[2] = target: T2, FcRL3, overexpressed on 3T3 cells (UniProt Q96P31 18-734, limits assumed); experiment: phage clone on 3T3-FcRL3 cells
T2 construct: whole, on cells
T2 sequence (looked up): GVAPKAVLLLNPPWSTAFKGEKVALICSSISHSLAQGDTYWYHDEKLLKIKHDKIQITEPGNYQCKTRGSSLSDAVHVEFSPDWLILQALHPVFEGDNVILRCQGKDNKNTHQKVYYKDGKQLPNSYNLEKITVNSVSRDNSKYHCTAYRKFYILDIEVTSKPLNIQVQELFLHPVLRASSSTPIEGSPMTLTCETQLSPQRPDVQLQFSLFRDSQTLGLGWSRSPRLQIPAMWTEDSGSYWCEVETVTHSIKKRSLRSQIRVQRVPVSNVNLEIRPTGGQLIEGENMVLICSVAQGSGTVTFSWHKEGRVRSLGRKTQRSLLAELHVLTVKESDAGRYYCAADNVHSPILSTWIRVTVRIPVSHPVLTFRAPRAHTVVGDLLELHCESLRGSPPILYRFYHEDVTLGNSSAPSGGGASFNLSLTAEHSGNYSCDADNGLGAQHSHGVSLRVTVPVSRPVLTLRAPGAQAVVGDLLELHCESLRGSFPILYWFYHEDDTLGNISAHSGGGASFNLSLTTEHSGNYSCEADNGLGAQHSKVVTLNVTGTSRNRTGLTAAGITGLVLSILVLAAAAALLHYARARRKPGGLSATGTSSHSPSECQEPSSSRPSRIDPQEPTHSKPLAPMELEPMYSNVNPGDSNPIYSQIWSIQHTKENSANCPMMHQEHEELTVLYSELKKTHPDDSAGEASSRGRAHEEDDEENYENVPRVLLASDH

[3] = target: T3, FcRL4, overexpressed on 3T3 cells (UniProt Q96PJ5 20-515, limits assumed); experiment: phage clone on 3T3-FcRL4 cells
T3 construct: whole, on cells
T3 sequence (looked up): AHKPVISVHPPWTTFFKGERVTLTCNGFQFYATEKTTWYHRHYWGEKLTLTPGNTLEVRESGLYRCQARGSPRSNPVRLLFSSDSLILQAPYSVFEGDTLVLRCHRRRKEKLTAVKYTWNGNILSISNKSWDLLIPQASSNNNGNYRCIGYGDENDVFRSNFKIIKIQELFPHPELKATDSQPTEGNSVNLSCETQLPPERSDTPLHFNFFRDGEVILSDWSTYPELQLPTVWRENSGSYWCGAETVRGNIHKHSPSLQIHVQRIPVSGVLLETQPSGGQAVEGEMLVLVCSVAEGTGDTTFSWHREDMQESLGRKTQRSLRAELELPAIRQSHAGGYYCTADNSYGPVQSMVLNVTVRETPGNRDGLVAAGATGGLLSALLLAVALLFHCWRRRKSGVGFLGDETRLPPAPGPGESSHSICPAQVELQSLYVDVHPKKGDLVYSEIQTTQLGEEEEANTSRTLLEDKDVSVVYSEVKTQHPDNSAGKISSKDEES

[4] = target: T4, FcRL6, overexpressed on 3T3 cells (UniProt Q6DN72 20-434, limits assumed); experiment: phage clone on 3T3-FcRL6 cells
T4 construct: whole, on cells
T4 sequence (looked up): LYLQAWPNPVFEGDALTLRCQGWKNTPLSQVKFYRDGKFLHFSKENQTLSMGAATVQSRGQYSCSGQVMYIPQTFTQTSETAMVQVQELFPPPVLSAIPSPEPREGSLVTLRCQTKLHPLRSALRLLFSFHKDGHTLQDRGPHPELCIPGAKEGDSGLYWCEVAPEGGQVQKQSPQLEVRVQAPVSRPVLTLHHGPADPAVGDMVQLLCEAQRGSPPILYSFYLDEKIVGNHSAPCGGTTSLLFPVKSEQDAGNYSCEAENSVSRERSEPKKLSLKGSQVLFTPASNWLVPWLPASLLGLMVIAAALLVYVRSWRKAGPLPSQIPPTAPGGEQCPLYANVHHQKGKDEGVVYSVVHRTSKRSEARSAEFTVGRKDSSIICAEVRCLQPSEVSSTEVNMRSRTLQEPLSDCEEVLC

Measured: binding result

B1: ET200-006 (scFv)
scFv: SYVLTQPPSVSVAPGKTARITCGGNNIGSKSVHWYQQKPGQAPVVVIHYDSDRPSGIPERFSGSNSGNTATLTISRVEAGDEADYYCQVWDSSSDHPYVFGTGTKVTVLGSRGGGGSGGGGSGGGGSLEMAEVQLVQSGAEVKKPGASVKVSCKASGYTFTTYGISWVRQAPGQGLEWMGWINTYNGHTNYAQKLQGRATMTADTSTNTAYMELRSLRSDDTAVYYCARVIYGSGDYWGQGTLVTVSSTSGQAGQHHHHHHGAYPYDVPDYAS
notes: screened as phage clone; entry is VL-linker-VH-His tag-HA tag
no binding: all assays above

B2: ET200-097 (scFv)
scFv: LPVLTQPPSVSVSPGQTAIITCSGDKLGEKYVSWYQQKPGQSPVLVIDQDTRRPSGIPERFSGSNSGTTATLTISGTQAMDEADYYCQAWDRGVVFGGGTKLTVLGSRGGGGSGGGGSGGGGSLEMAEVQLVESGGDLVQPGRSLRLSCAASGFTFNDYAMHWVRQAPGKGLEWVSGISWSGNNIGYADSVKGRFTISRDNAKNSLYLQMNSLRAEDTALYYCAKDSIRYGITWGGFDYWGQGTLVTVSSTSGQAGQHHHHHHGAYPYDVPDYAS
notes: as for B1
no binding: all assays above

B3: ET200-069 (scFv)
scFv: QSVVTQPPSASGTPGQRVTISCSGSSSNIGSNYVYWYQQLPGTAPKLLIYSNNQRPSGVPDRFSGSKSGTSASLAISGLRSEDEADYYCAAWDDSLSGYVFGTGTKLTVLGSRGGGGSGGGGSGGGGSLEMAQVQLQQWGAGLLKPSETLSLTCAVYGGSFSGYYWSWIRQPPGKGLEWIGEINHSGSTNYNPSLKSRVTISVDTSKNQFSLKLSSVTAADTAVYYCARLYEGGYHGWGSWLSSDSWGQGTLVTVSSTSGQAGQHHHHHHGAYPYDVPDYAS
notes: screened as phage clone; entry is VL-linker-VH-His tag-HA tag; also called ET200-69
no binding: all assays above

B4: ET200-100 (scFv)
scFv: NFMLTQPHSVSESPGKTVTISCTRSSGSIASNFVQWYQQRPGSAPTPMIYEDNNRPPGVPDRFSASVDSSSNSASLTISGLKTEDEADYYCQSYDTSNVVFGGGTKLTVLGSRGGGGSGGGGSGGGGSLEMAEVQLVESGGGLVQPGGSLRLSCAASGFTFSSYEMNWVRQAPGKGLEWVSYISSSGSTIYYADSVKGRFTISRDNAKNSLYLQMNSLRAEDTAVYYCARWDYGMDVWGQGTTVTVSSTSGQAGQHHHHHHGAYPYDVPDYAS
notes: as for B1
no binding: all assays above

B5: ET200-104 (scFv)
scFv: B4 scFv with F33Y, P47T, M48V, N54Q, P57S, A65G, V67I, T96S, L107V
notes: as for B1
no binding: all assays above

B6: ET200-098 (scFv)
scFv: QPVLTQPPSVSKGLRQTATLTCTGNSNNVGNLGVAWLQQHQGHPPKLLSYRNNNRPSGISERLSASRSGNTASLTITGLQPEDEADYYCSAWDSSLSAWVFGGGTKLTVLGSRGGGGSGGGGSGGGGSLEMAEVQLVESGGVVVQPGGSLRLSCAASGFTFDDYAMHWVRQAPGKGLEWVSLINWDGGSTYYADSVKGRFTISRDNSKNSLYLQMNSLRAEDTALYYCAKGMGLRAFDYWGQGTLVTVSSTSGQAGQHHHHHHGAYPYDVPDYAS
notes: as for B1
no binding: all assays above

B7: ET200-079 (scFv)
scFv: SYELTQPPSASGTPGQRVTISCSGSSSNIGSNYVYWYQQLPGTAPKLFIYRNNQRPSGVPDRFSGSKSGTSASLAISGLRSEDEADYYCAAWDDSLSGYLFGTGTKVTVLGSRGGGGSGGGGSGGGGSLEMAEVQLVESGGGLVQPGRSLRLSCAASGFTFDDYAMHWVRQAPGKGLEWVSGISWNSGSIGYADSVKGRFTISRDNAKNSLYLQMNSLRAEDTALYYCANGDSNYYYGMDVWGQGTTVTVSSTSGQAGQHHHHHHGAYPYDVPDYAS
notes: as for B1
no binding: all assays above

B8: ET200-099 (scFv)
scFv: QSVLTQPPSASGTPGQRVTISCSGSSSNIGSNTVNWYQQLPGTAPKLLIYSNDQRPSGVPDRFSGSKSGTSASLAISGLQSEDEADYYCASWDDSLNGRYVFGTGTKVTVLGSRGGGGSGGGGSGGGGSLEMAQVQLVQSGAEVRKPGASVKVSCKTSGYTFSWYAIHWVRQAPGQRLEWMGWINAGNGNTKYSQKFQGRVSLTRDTSASTAYMELSSLRSDDTAVYYCARPDNYGSGGDVFDIWGQGTMVTVSSTSGQAGQHHHHHHGAYPYDVPDYAS
notes: as for B1
no binding: all assays above

B9: ET200-045 (scFv)
scFv: QPVLTQPPSVSVAPGKTATITCGGNNIGSESVHWYHQKPGQAPVLVIYDDAGRPSGIPERFTGSNSGNTATLTISRVEAGDEADYYCQVWDRNSAQFVFGPGTKVTVLGSRGGGGSGGGGSGGGGSLEMAEVQLVQSGAEVKKPGASVKVSCKASGYTFTSYGISWVRQAPGQGLEWMGWISAYNGNTNYAQKLQGRVTMTTDTSTSTAYMELRSLRSDDTAVYYCARGVHLDWWGQGTLVTVSSTSGQAGQHHHHHHGAYPYDVPDYAS
notes: as for B1
no binding: all assays above

B10: ET200-081 (scFv)
scFv: QSALTQPASVSGSPGQSITISCTGTSSDIGGYNYVSWYQQHPGKAPKLMIYDVSNRPSGVSNRFSGSKSGNTASLTISGLQAEDEADYYCISYTRTWNPYVFGSGTKVTVLGSRGGGGSGGGGSGGGGSLEMAEVQLVQSGGGVVQPGGSLRLSCAASGFTFDDYAMHWVRQAPGKGLEWVSLISGDGGSTYYADSVKGRFTISRDNSKNSLYLQMNSLRTEDTALYYCAKDRAAAGYYYYGMDVWGQGTTVTVSSTSGQAGQHHHHHHGAYPYDVPDYAS
notes: as for B1
no binding: all assays above

B11: ET200-044 (scFv)
scFv: QSVLTQPPSVSVSPGQTATIACSGHKLGDKYASWYQQKSGQSPVLIIYQDNKRPSGIPERFSGSNSGNTATLTISGTQALDEADYYCQAWDSSTYVAFGGGTKLTVLGSRGGGGSGGGGSGGGGSLEMAQVQLQESGPGLVKPSETLSLTCVVSGGSISSSNWWSWVRQPPGKGLEWIGEIYHSGSPNYNPSLKSRVTISVDKSKNQFSLKLSSVTAADTAVYYCARMTTHTFGYDAWGQGTLVTVSSTSGQAGQHHHHHHGAYPYDVPDYAS
notes: as for B1
no binding: all assays above
